# Results from publication PMC6975171, “Deep sequencing of mitochondrial DNA and characterization of a novel POLG mutation in a patient with arPEO”.
# What was measured:
# POLγA F197S;POLγB = POLγA F197S;POLγB (Homo sapiens?;Homo sapiens?, UniProt P54098;Q9UHN1 26-1239;25-485, F197S|); test: EMSA; 0.3 mM ddGTP, 3 mM dCTP; 10 fmol DNA in 15 µL; 25 mM Tris-HCl pH 7.8, 1 mM DTT, 0.1 mg/mL BSA, 10% glycerol, 0.3 mM ddGTP, 3 mM dCTP, no added Mg2+ stated; 10 min at ambient temperature; 6% native PAGE in 0.5x TBE; conditions: protein: recombinant;recombinant; tags: 6xHis;6xHis; copies: 1;2; label: 32P 5' end of the 21-nt primer (S1); 21 bp duplex, 5' overhang 15 nt on S2 (template strand), recessed primer 3' end
# POLγA WT;POLγB = POLγA WT;POLγB (Homo sapiens?;Homo sapiens?, UniProt P54098;Q9UHN1 26-1239;25-485, |); test: as above; conditions: protein: recombinant;recombinant; tags: 6xHis;6xHis; copies: 1;2; label: 32P 5' end of the 21-nt primer (S1); 21 bp duplex, 5' overhang 15 nt on S2 (template strand), recessed primer 3' end
# Sequence of POLγA WT;POLγB (P54098 26-1239, chain 1 of 2): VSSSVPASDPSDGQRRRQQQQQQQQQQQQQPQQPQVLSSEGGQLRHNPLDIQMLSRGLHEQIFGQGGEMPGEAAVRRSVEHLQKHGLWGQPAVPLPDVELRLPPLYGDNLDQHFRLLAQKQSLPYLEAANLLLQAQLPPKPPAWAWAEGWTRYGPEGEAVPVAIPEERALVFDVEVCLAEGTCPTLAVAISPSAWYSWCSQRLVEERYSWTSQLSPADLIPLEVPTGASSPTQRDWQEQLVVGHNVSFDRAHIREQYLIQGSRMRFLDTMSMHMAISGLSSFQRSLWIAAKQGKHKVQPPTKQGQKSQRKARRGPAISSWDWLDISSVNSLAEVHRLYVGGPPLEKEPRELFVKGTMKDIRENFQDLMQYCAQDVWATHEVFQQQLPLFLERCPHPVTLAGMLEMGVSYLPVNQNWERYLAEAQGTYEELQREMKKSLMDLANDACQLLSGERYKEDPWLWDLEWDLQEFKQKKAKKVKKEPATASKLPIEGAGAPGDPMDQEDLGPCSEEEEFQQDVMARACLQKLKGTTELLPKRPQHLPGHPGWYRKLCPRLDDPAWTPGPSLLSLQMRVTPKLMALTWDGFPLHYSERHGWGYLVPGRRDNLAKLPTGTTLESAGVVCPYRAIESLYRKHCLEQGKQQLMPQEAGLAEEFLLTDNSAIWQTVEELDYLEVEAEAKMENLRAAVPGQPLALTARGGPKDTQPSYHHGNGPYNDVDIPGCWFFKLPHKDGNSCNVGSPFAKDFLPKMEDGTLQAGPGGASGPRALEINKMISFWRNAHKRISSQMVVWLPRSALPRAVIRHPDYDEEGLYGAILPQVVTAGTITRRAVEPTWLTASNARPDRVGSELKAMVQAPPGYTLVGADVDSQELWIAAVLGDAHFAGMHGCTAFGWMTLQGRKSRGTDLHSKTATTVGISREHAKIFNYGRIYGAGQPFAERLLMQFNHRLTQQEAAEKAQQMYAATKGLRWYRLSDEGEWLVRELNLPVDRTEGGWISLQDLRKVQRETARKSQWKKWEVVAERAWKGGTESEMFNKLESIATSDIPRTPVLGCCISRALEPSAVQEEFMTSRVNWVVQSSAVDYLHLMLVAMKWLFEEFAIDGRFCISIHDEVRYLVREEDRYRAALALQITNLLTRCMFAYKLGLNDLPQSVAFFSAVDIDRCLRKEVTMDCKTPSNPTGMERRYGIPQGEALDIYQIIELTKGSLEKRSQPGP
# Sequence of POLγA WT;POLγB (Q9UHN1 25-485, chain 2 of 2): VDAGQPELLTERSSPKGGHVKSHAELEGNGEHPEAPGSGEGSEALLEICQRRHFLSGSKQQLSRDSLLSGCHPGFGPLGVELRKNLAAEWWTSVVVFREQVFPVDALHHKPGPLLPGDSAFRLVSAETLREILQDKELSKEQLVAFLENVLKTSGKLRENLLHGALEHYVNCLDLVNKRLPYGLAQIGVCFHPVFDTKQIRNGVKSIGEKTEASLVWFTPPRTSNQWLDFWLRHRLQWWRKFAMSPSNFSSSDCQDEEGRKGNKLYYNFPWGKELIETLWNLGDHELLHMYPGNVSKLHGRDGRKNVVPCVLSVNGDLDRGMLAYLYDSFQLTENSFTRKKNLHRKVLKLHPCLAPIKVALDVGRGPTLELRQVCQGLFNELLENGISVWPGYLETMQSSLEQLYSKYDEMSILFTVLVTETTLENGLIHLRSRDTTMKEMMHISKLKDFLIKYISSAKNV
# Sequence of POLγA F197S;POLγB (P54098 26-1239 F197S, chain 1 of 2): as the sequence (P54098 26-1239, chain 1 of 2) above, with F172S counted along it
# Sequence of POLγA F197S;POLγB (Q9UHN1 25-485, chain 2 of 2): as the sequence (Q9UHN1 25-485, chain 2 of 2) above
binder,measurement,setting,value
21/36-nt primed template (dsDNA) DNA 1: GCGGTCGAGTCTAGAGGAGCC DNA 2: GACTACGTCTATCCGGGCTCCTCTAGACTCGACCGC,binding result,POLγA F197S;POLγB,binds
same,binding result,POLγA WT;POLγB,binds
